Bridges are numbered along the chain shown (N, C = ends). [ ]: non-standard residue; d: D form. Pen = CC(C)(S)[C@H](N)C(=O)O; hCys = N[C@@H](CCS)C(=O)O; Dap = NC[C@H](N)C(=O)O A value given as a limit tells only on which side of the number the result lay.

The text below walks through data of patent US20220226425A1 (RHYTHM PHARMACEUTICALS, published 2022).

Some targets named below: melanocortin 1 receptor (human, UniProt Q01726 1-317); melanocortin-4 receptor (human, UniProt P32245 1-332); melanocortin 3 receptor (human, UniProt P41968 1-323); melanocortin 5 receptor (human, UniProt P33032 1-325).
Assay in all cases: cell-based or functional assay

Sequence of melanocortin 1 receptor (Q01726 whole entry): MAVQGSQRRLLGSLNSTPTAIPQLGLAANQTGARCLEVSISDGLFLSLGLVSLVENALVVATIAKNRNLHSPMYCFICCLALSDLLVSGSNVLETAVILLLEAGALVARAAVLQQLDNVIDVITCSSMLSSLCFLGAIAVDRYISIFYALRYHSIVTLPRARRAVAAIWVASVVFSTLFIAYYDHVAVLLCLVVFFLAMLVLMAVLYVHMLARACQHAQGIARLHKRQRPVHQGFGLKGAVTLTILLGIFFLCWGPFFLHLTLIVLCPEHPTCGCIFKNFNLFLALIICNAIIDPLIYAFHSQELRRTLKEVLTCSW
Sequence of melanocortin 5 receptor (P33032 whole entry): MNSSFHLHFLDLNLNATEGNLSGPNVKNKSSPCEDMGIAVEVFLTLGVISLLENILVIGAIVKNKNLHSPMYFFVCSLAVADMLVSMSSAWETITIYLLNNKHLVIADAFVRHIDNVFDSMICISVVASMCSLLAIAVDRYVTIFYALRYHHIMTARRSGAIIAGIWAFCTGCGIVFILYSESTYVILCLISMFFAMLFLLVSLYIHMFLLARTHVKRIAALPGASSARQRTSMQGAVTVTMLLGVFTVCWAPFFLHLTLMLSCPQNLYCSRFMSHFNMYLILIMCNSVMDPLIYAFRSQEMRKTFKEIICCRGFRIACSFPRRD
Sequence of melanocortin 3 receptor (P41968 whole entry): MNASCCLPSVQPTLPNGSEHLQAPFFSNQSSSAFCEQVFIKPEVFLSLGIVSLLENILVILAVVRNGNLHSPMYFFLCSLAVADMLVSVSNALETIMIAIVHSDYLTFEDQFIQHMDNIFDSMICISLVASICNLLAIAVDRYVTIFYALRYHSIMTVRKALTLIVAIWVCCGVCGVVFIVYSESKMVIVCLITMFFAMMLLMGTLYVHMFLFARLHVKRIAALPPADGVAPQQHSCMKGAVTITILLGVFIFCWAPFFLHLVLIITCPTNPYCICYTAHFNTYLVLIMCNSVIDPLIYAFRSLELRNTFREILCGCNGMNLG
Sequence of melanocortin-4 receptor (P32245 whole entry): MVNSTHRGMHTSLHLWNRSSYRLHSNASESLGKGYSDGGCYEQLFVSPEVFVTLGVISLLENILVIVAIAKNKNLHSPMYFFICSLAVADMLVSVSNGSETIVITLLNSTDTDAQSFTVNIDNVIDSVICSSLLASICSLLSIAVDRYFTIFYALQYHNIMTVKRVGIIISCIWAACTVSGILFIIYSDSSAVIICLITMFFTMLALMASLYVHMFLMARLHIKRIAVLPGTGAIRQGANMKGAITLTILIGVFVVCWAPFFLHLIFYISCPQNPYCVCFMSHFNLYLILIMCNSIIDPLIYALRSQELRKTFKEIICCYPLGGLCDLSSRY

B1: 001576C, Ac-Arg-(Glu-Gln-D-Phe-Arg-Trp-Dpr)-NH2 (peptide)
peptide: Ac-REQ[dF]RW[Dap]-NH2
modifications: lactam 2-7
SMILES: CC(=O)N[C@@H](CCCNC(=N)N)C(=O)N[C@H]1CCC(=O)NC[C@@H](C(N)=O)NC(=O)[C@H](Cc2c[nH]c3ccccc23)NC(=O)[C@H](CCCNC(=N)N)NC(=O)[C@@H](Cc2ccccc2)NC(=O)[C@H](CCC(N)=O)NC1=O
For the molecule B1, the “EC-50 (nM), cAMP accumulation” value stood at 23.6 nM with melanocortin 1 receptor, 0.66 nM with melanocortin-4 receptor, 1.16 nM in the assay with melanocortin 3 receptor and 67.3 nM with melanocortin 5 receptor. Further, in the assay with melanocortin 3 receptor, the “Selectivity Ratio MC4R/MC3R (of EC-50 values)” value (“Selectivity Ratio MC4R/MC3R” below) came out at 1.75.

B2: 001574C, Ac-Arg-(hCys-Thr-D-Phe-Arg-Trp-Pen)-NH2 (peptide)
peptide: Ac-R[hCys]T[dF]RW[Pen]-NH2
modifications: disulfide 2-7
SMILES: CC(=O)N[C@@H](CCCNC(=N)N)C(=O)N[C@H]1CCSSC(C)(C)[C@@H](C(N)=O)NC(=O)[C@H](Cc2c[nH]c3ccccc23)NC(=O)[C@H](CCCNC(=N)N)NC(=O)[C@@H](Cc2ccccc2)NC(=O)[C@H]([C@@H](C)O)NC1=O
On to B2, for which the “EC-50 (nM), cAMP accumulation” value with melanocortin 1 receptor was 516 nM; in the assay with melanocortin-4 receptor, 1.11 nM; with melanocortin 3 receptor, above 3000 nM; with melanocortin 5 receptor, 2050 nM. Besides, in the assay with melanocortin 3 receptor, the “Selectivity Ratio MC4R/MC3R” value is above 2710.
For the molecule Ac-R[hCys]N[dF]RW[Pen]-NH2 (disulfide 2-7) [001554C, Ac-Arg-(hCys-Asn-D-Phe-Arg-Trp-Pen)-NH2], the “EC-50 (nM), cAMP accumulation” value with melanocortin 1 receptor is 235 nM; with melanocortin-4 receptor, 1.6 nM; with melanocortin 3 receptor, above 3000 nM; with melanocortin 5 receptor it was 735 nM. Also, the “Selectivity Ratio MC4R/MC3R” value with melanocortin 3 receptor is above 1870.
The corresponding values for Ac-R[hCys]Q[dF]RW[Pen]-NH2 (disulfide 2-7) [001555C, Ac-Arg-(hCys-Gln-D-Phe-Arg-Trp-Pen)-NH2] are 47.5 nM, 0.19 nM, 0.52 nM, 124 nM and 2.68.

B3: 001556C, Ac-Arg-(hCys-Ser-D-Phe-Arg-Trp-Pen)-NH2 (peptide)
peptide: Ac-R[hCys]S[dF]RW[Pen]-NH2
modifications: disulfide 2-7
SMILES: CC(=O)N[C@@H](CCCNC(=N)N)C(=O)N[C@H]1CCSSC(C)(C)[C@@H](C(N)=O)NC(=O)[C@H](Cc2c[nH]c3ccccc23)NC(=O)[C@H](CCCNC(=N)N)NC(=O)[C@@H](Cc2ccccc2)NC(=O)[C@H](CO)NC1=O
In the case of B3, the “EC-50 (nM), cAMP accumulation” value is 229 nM with melanocortin 1 receptor, 1.86 nM in the assay with melanocortin-4 receptor, above 3000 nM with melanocortin 3 receptor and 1700 nM in the assay with melanocortin 5 receptor. Moreover, the “Selectivity Ratio MC4R/MC3R” value with melanocortin 3 receptor is above 1620.
